Results as given in patent US20020094516.

Legend:
[1] = test system: T1, phiC31 integrase mutant 1C1 (Phage phiC31); assay: cell_activity; conditions: human 293 cells, attB plasmid integration into genome; integration at psiA shown by PCR
T1 sequence: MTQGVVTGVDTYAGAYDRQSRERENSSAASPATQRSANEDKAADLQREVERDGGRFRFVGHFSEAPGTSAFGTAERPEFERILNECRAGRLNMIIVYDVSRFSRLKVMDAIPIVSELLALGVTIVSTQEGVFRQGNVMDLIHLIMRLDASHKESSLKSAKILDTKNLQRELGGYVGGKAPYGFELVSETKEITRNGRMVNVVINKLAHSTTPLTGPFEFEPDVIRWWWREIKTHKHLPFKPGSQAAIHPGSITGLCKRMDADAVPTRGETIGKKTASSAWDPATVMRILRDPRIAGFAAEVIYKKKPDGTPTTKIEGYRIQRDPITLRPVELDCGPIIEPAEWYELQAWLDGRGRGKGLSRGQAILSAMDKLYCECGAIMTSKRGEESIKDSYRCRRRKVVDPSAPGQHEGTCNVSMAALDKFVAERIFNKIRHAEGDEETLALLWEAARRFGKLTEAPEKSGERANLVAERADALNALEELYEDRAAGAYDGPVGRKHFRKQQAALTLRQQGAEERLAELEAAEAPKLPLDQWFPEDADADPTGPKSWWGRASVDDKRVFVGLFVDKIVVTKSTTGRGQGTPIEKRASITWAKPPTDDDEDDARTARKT

[2] = test system: T2, phiC31 integrase wild-type (Phage phiC31); assay: cell_activity; conditions: human 293 cells, attB plasmid integration into genome, G418 selection
T2 sequence: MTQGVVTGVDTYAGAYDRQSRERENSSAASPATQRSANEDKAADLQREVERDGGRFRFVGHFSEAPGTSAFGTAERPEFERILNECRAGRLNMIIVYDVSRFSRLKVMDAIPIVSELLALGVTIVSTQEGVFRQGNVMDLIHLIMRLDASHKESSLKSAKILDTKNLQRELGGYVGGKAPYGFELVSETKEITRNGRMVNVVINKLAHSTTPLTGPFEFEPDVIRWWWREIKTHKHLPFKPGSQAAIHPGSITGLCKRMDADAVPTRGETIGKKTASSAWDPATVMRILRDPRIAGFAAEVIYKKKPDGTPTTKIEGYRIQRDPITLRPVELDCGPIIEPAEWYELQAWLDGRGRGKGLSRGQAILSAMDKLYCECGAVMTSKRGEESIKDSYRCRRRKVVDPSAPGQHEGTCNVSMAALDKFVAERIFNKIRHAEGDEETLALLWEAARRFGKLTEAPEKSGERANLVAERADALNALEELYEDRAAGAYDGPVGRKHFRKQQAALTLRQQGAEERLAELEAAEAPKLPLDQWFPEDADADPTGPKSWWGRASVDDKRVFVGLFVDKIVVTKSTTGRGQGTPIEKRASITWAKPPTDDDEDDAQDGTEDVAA

CGATGTAGGTCACGGTCTCGAAGCCGCGGTGCGGGTGCCAGGGCGTGCCCTTGGGCTCCCCGGGCGCGTACTCCACCTCACCCATCTGGTCCATCATGATGAACGGGTCGAGGTGGCGGTAGTTGATCCCGGCGAACGCGCGGCGCACCGGGAAGCCCTCGCCCTCGAAACCGCTGGGCGCGGTGGTCACGGTGAGCACGGGACGTGCGACGGCGTCGGCGGGTGCGGATACGCGGGGCAGCGTCAGCGGGTTCTCGACGGTCACGGCGGGCATGTCGA (double strand) [phiC31 attB (full length)]
integration activity (fold colonies vs wild-type integrase) [1]: 2
activity (fold colonies over background) [2]: > 10
